In general, stoichiometry N refers to the number of molecules, sites or subunits per partner or assembly. By Kd is commonly meant the constant that tells how readily two partners part at equilibrium.

Results on three molecules are retold here after article PMC11142733, “IgG hexamers initiate complement-dependent acute lung injury” (The Journal of Clinical Investigation, 2024).

Assay [1] deals with RGY-mutated 34-1-2S (RGY-hIgG1-34-1-2S) (mouse | human). The experiment in a line: negative stain electron microscopy; antibody samples diluted to 0.01 mg/mL in 25 mM HEPES and 100 mM NaCl, on carbon-coated grids, stained with 0.75% uranyl formate; monomer to hexamer in solution.
Assay [2] has as its target T1, D^d MHC class I monomer presenting IGPGRAFYA (mouse | ).
T1 chain 1: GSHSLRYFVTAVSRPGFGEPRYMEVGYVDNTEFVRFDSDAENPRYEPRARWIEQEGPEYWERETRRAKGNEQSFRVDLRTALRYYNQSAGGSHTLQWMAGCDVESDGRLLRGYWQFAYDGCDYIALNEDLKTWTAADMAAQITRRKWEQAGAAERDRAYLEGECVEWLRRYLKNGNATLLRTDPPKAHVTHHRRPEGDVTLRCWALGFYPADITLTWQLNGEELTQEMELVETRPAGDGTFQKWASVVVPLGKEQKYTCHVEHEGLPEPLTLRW
T1 chain 2: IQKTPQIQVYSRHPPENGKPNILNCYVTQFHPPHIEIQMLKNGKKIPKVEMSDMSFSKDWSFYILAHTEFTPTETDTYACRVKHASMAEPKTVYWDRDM
T1 chain 3: IGPGRAFYA
Put plainly: SPR.

Assay [3] concerns the target T2, K^b MHC class I monomer presenting SIINFEKL (mouse | ).
T2 chain 1: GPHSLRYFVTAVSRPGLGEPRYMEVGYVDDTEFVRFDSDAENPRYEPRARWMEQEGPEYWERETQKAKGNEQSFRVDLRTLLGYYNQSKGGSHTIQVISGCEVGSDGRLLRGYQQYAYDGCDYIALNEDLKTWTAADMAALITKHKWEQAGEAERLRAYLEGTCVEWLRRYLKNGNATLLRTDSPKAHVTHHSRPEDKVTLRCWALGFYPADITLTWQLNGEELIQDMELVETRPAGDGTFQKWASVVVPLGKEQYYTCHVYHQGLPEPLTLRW
T2 chain 2: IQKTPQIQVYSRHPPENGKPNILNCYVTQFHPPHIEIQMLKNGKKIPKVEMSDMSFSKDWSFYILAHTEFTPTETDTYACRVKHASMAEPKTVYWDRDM
T2 chain 3: SIINFEKL
The experiment in a line: SPR.

In assay [4] the target is T3, K^d MHC class I monomer presenting VYLKTNVFL (mouse | ).
T3 chain 1: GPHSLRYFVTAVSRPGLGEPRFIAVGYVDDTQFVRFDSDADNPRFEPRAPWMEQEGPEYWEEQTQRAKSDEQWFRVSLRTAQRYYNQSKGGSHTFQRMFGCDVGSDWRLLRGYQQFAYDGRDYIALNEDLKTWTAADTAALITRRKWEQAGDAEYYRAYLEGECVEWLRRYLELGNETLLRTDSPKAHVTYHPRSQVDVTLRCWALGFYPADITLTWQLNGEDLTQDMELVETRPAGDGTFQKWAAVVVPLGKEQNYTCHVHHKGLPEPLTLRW
T3 chain 2: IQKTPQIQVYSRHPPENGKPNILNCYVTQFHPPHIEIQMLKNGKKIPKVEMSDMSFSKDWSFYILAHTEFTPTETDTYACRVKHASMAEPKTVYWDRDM
T3 chain 3: VYLKTNVFL
The experiment in a line: SPR. On the technique in general: In SPR one partner is held on a chip, and binding of the other changes the refractive index at the surface.

Assay [5] concerns the target T4, K^d MHC class I monomer presenting … (Mus musculus, H-2d haplotype (H-2Kd), UniProt P01902;P01887).
T4 construct: mouse MHC class I heavy chain H-2K^d of the bought monomer; beta-2-microglobulin of the bought monomer; presented peptide; Soluble monomer from a supplier
The experiment in a line: SPR; mAbs bound via amine coupling to SensEye G Easy2Spot sensors; serial dilutions (0.5–200 nM) of MHC class I monomers injected; in triplicate; IBIS MX96 SPR imager. As to conditions: both partners purified.

For assay [6], the target named is T5, K^b MHC class I monomer presenting SIINFEKL (Mus musculus, H-2b haplotype (H-2Kb), UniProt P01901;P01887).
T5 construct: mouse MHC class I heavy chain H-2K^b of the bought monomer; beta-2-microglobulin of the bought monomer; presented peptide; Soluble monomer from a supplier; also called K^b MHC class I antigen from H2^b mice; copies: + +
The assay is described as above. As to conditions: both partners purified.

For assay [7], the target named is T6, D^b MHC class I monomer presenting … (Mus musculus, H-2b haplotype (H-2Db), UniProt P01899;P01887).
T6 construct: mouse MHC class I heavy chain H-2D^b of the bought monomer; beta-2-microglobulin of the bought monomer; presented peptide; Soluble monomer from a supplier; copies: + +
Described as above. The conditions noted are these: both partners purified.

For assay [8], the target named is T4, K^d MHC class I monomer presenting ….

Read-outs that look alike come from different tables or passages of the source.

B1: RGY-mutated 34-1-2S (RGY-hIgG1-34-1-2S) (antibody, V domains shown)
VH: EVQLQQSGAEFVRPGASVKLSCTASGFNLKDDYMFWVKQRPEQGLEWIGWIAPDNGDTEYASKFQGKATITADTSSNTAYVQLSSLTSEDTAVYYCTTWGYYSYVNYWGQGTTLTVSS
VL: DIQMTQSPSSLSASLGERVSLTCRASQDIGSNLNWLQQEPDGTIKRLIYATYSLDSGVPKRFSGSRSGSDYSLTISSLESEDFVDYYCLQYASSPYTFGGGTKLEIK
B1 returned a stoichiometry N in assay [1] of 6.

B2: MHC class I alloantibody 34-1-2S (mouse IgG2a) (antibody, V domains shown)
VH: EVQLQQSGAEFVRPGASVKLSCTASGFNLKDDYMFWVKQRPEQGLEWIGWIAPDNGDTEYASKFQGKATITADTSSNTAYVQLSSLTSEDTAVYYCTTWGYYSYVNYWGQGTTLTVSS
VL: DIQMTQSPSSLSASLGERVSLTCRASQDIGSNLNWLQQEPDGTIKRLIYATYSLDSGVPKRFSGSRSGSDYSLTISSLESEDFVDYYCLQYASSPYTFGGGTKLEIK
notes: heavy-chain variable region of 34-1-2S; mouse IgG2a heavy-chain constant region; light chain variable region of 34-1-2S; light-chain constant region of the mouse antibody; Mouse IgG2a; also called anti-MHC class I clone 34-1-2S; control 34-1-2S; source: bought: Bio X Cell, catalog no; BE0180
Consider B2, for which the results for the Kd in assay [2], in assay [3] and in assay [4] were 30 nM, 2490 nM and 9.1 nM, respectively. Also, the binding result in assay [5] was “binds”; in assay [6] it was “binds”; in assay [7] it was “no binding (tested: 0.5–200 nM)”.

B3: Kd1 (antibody, V domains shown)
VH: EVLLVESGGDLVKPGGSLKLSCAASGFTFRTYAMSWVRQTPEKRLEWVATIGDDGSYTFYPDNVKGRFTISRDNAKNNLYLQMRHLKSEDTAIYFCARDGLFAYWGQGTLVTVSA
VL: DIQMTQSPSSLSASLGGKVTITCKASQDIKKNIAWYQYKPGKGPRLLIHYTSTLQPGISSRFSGSGSGRDYSFSISNLEPEDIATYYCLQYDSLLYTFGGGTKLEIK
Consider B3, for which the binding result in assay [8] is recorded as “binds”.
